The target of experiment [1] is HLA-A*01:01. The experiment can be described thus: IEDB peptide-MHC binding, purified MHC/direct/fluorescence; filed as Kd, often an IC50 or EC50 that approximates it; ≥ and ≤ were set here for values at or beyond the usual limits of such assays.
The target of experiment [2] is HLA-A*02:01. The description is as above.
The target in another experiment is HLA-A*03:01. Described as above.
The target in the next experiment is HLA-A*11:01. The experiment is described as above.
For a further experiment, the target named is HLA-A*24:03. The experiment is described as above. The following applies: source organism: Salmonella enterica subsp. enterica serovar Typhimurium.
For the next experiment, the target named is HLA-A*26:01. The description is as above.
Another experiment addresses HLA-A*31:01. Described as above.
Another experiment deals with HLA-A*69:01. The experiment is described as above.
The target of a further experiment is HLA-B*07:02. The experiment is described as above.
In experiment [3] the target is HLA-B*08:01. The experiment is described as above.
The target of experiment [4] is HLA-B*15:01. The description is as above.
Another experiment concerns the target HLA-B*27:05. The experiment is described as above.
In another experiment the target is HLA-B*40:01. The description is as above.
A further experiment deals with HLA-B*44:02. Described as above. Particulars: source organism: Salmonella enterica subsp. enterica serovar Typhimurium.
The target in a further experiment is HLA-B*58:01. Described as above.
In the next experiment the target is HLA-A*02:50. The experiment can be described thus: IEDB peptide-MHC binding, purified MHC/competitive/fluorescence; filed as Kd, often an IC50 or EC50 that approximates it; ≥ and ≤ were set here for values at or beyond the usual limits of such assays. Particulars: source organism: Aeromonas salmonicida subsp. salmonicida.
For experiment [5], the target named is HLA-A*26:02. Nature of the experiment: IEDB peptide-MHC binding, purified MHC/direct/fluorescence; filed as Kd, often an IC50 or EC50 that approximates it; ≥ and ≤ were set here for values at or beyond the usual limits of such assays. Particulars: source organism: Coxiella burnetii Q321.
The next experiment concerns the target HLA-A*26:03. Described as above. Particulars: source organism: Coxiella burnetii Q321.
For the next experiment, the target named is HLA-B*15:17. The description is as above.
A further experiment concerns the target HLA-B*46:01. The experiment is described as above.
The target in another experiment is HLA-B*48:01. Described as above.
For another experiment, the target named is HLA-B*57:01. Described as above.
Experiment [6] has as its target HLA-A*01:01. Nature of the experiment: IEDB peptide-MHC binding, purified MHC/competitive/fluorescence; filed as Kd, often an IC50 or EC50 that approximates it; ≥ and ≤ were set here for values at or beyond the usual limits of such assays. The following applies: source organism: Coxiella burnetii RSA 493.
Experiment [7] has as its target HLA-A*02:01. The experiment is described as above.
The next experiment concerns the target HLA-A*30:01. Described as above.
Experiment [8] has as its target HLA-B*08:01. Described as above. Particulars: source organism: Coxiella burnetii RSA 493.
For experiment [9], the target named is HLA-B*15:01. The experiment is described as above.
Experiment [10] deals with HLA-B*39:01. The experiment is described as above. Particulars: source organism: Coxiella burnetii RSA 493.
In another experiment the target is HLA-A*68:02. Nature of the experiment: IEDB peptide-MHC binding, purified MHC/direct/fluorescence; filed as Kd, often an IC50 or EC50 that approximates it; ≥ and ≤ were set here for values at or beyond the usual limits of such assays. Particulars: source organism: Marburg virus - Musoke, Kenya, 1980.
The target of the next experiment is HLA-B*08:02. The description is as above.
A further experiment addresses HLA-B*15:09. The description is as above.
In another experiment the target is HLA-B*18:01. The experiment is described as above.
A further experiment has as its target HLA-B*38:01. Described as above.
In experiment [11] the target is HLA-B*39:01. Described as above. Particulars: source organism: Marburg virus - Musoke, Kenya, 1980.
Another experiment concerns the target HLA-C*05:01. The description is as above. Particulars: source organism: Orthomarburgvirus marburgense.
The target of experiment [12] is HLA-A*26:02. The experiment can be described thus: IEDB peptide-MHC binding, purified MHC/competitive/fluorescence; filed as Kd, often an IC50 or EC50 that approximates it; ≥ and ≤ were set here for values at or beyond the usual limits of such assays. The following applies: source organism: Orthomarburgvirus marburgense.
A further experiment deals with HLA-B*51:01. Nature of the experiment: IEDB peptide-MHC binding, purified MHC/direct/fluorescence; filed as Kd, often an IC50 or EC50 that approximates it; ≥ and ≤ were set here for values at or beyond the usual limits of such assays. The following applies: source organism: Mycobacterium tuberculosis.
The next experiment concerns the target HLA-B*15:42. The experiment can be described thus: IEDB peptide-MHC binding, purified MHC/competitive/fluorescence; filed as Kd, often an IC50 or EC50 that approximates it; ≥ and ≤ were set here for values at or beyond the usual limits of such assays. Particulars: source organism: Mycobacterium tuberculosis C.
A further experiment deals with HLA-B*45:06. The experiment is described as above. The following applies: source organism: Mycobacterium tuberculosis C.
A further experiment has as its target HLA-B*83:01. The description is as above. Particulars: source organism: Mycobacterium tuberculosis C.
The mark [13] stands for this setting: source organism: Salmonella enterica subsp. enterica serovar Typhimurium.
[14] abbreviates: source organism: Coxiella burnetii.
Setting [15] is: source organism: Coxiella burnetii RSA 493.
The mark [16] stands for this setting: source organism: Marburg virus - Musoke, Kenya, 1980.
[17] abbreviates: source organism: Ravn virus - Ravn, Kenya, 1987.
The mark [18] stands for this setting: source organism: Orthomarburgvirus marburgense.
The mark [19] stands for this setting: source organism: Mycobacterium tuberculosis.
Where [20] appears, read: source organism: Mycobacterium tuberculosis str. Haarlem.

Four sequences from the Immune Epitope Database (IEDB) can be followed below.

Regarding FMIDWILDA, the Kd with HLA-A*01:01 [1] (setting [13]) is at least 20 µM; with HLA-A*02:01 [2] (setting [13]), 0.003 µM; with HLA-A*03:01 (setting [13]) it was at least 20 µM; with HLA-A*11:01 (setting [13]), at least 20 µM; in the experiment with HLA-A*24:03, at least 20 µM; in the experiment with HLA-A*26:01 (setting [13]) it was at least 20 µM. Moreover, the dissociation constant Kd was at least 20 µM with HLA-A*31:01 (setting [13]); 0.056 µM in the experiment with HLA-A*69:01 (setting [13]); at least 20 µM in the experiment with HLA-B*07:02 (setting [13]); at least 20 µM with HLA-B*08:01 [3] (setting [13]); 0.264 µM in the experiment with HLA-B*15:01 [4] (setting [13]); at least 20 µM in the experiment with HLA-B*27:05 (setting [13]). For the same sequence, the Kd with HLA-B*40:01 (setting [13]) was at least 20 µM; in the experiment with HLA-B*44:02, at least 20 µM; in the experiment with HLA-B*58:01 (setting [13]), at least 20 µM; with HLA-A*02:50 it was at most 0.0001 µM.

In the case of EIYRTLYGL, the equilibrium dissociation constant (Kd) was at least 20 µM with HLA-A*03:01 (setting [14]); at least 20 µM with HLA-A*11:01 (setting [14]); 0.067 µM with HLA-A*26:01 (source organism: Coxiella burnetii Q321); 0.006 µM with HLA-A*26:02 [5]; 0.182 µM in the experiment with HLA-A*26:03; at least 20 µM with HLA-A*31:01 (setting [14]). Moreover, the Kd with HLA-A*69:01 (setting [14]) was 0.0014 µM; with HLA-B*15:17 (setting [14]), 0.384 µM; with HLA-B*27:05 (setting [14]) it was at least 20 µM; with HLA-B*40:01 (setting [14]), at least 20 µM; in the experiment with HLA-B*46:01 (setting [14]), at least 20 µM; with HLA-B*48:01 (setting [14]), at least 20 µM. Further, the Kd was at least 20 µM with HLA-B*57:01 (setting [14]); at least 20 µM in the experiment with HLA-B*58:01 (setting [14]); 4.29 µM in the experiment with HLA-A*01:01 [6]; at least 20 µM with HLA-A*02:01 [7] (setting [15]); 2.47 µM with HLA-A*30:01 (setting [15]); 7 µM with HLA-B*08:01 [8]. Also, the dissociation constant (Kd) with HLA-B*15:01 [9] (setting [15]) was at least 20 µM; in the experiment with HLA-B*39:01 [10], 2.74 µM.

As to IFDDLQGSL, the Kd in the experiment with HLA-A*01:01 [1] (setting [16]), in the experiment with HLA-A*68:02, with HLA-A*69:01 (setting [16]), in the experiment with HLA-B*07:02 (setting [16]), with HLA-B*08:02 (setting [17]) and with HLA-B*15:01 [4] (setting [16]) was at least 20 µM each time. The Kd with HLA-B*15:09 (setting [17]), with HLA-B*15:17 (setting [16]), in the experiment with HLA-B*18:01 (setting [16]), in the experiment with HLA-B*27:05 (setting [16]), with HLA-B*38:01 (setting [17]) and in the experiment with HLA-B*39:01 [11] was at least 20 µM each time. Also, the Kd with HLA-B*40:01 (setting [16]) is at least 20 µM; in the experiment with HLA-B*46:01 (setting [16]), at least 20 µM; in the experiment with HLA-B*48:01 (setting [16]) it was at least 20 µM; with HLA-B*57:01 (setting [16]) it was at least 20 µM; in the experiment with HLA-B*58:01 (setting [16]), at least 20 µM; in the experiment with HLA-C*05:01, 3.84 µM. The dissociation constant (Kd) with HLA-A*02:01 [7] (setting [18]), in the experiment with HLA-A*26:02 [12] and in the experiment with HLA-A*30:01 (setting [18]) was at least 20 µM throughout.

Consider RPAGARAAF, for which the equilibrium dissociation constant (Kd) with HLA-A*01:01 [1] (setting [19]), in the experiment with HLA-A*02:01 [2] (setting [19]), with HLA-A*03:01 (setting [19]), in the experiment with HLA-A*11:01 (setting [19]), in the experiment with HLA-A*26:01 (setting [20]) and with HLA-A*31:01 (setting [19]) was at least 20 µM each time. Besides, the Kd with HLA-A*69:01 (setting [19]) is at least 20 µM; with HLA-B*08:01 [3] (setting [20]) it was 6.85 µM; in the experiment with HLA-B*08:02 (setting [20]), at least 20 µM; with HLA-B*15:09 (setting [20]) it was at least 20 µM; with HLA-B*15:17 (setting [19]), at least 20 µM; with HLA-B*18:01 (setting [19]) it was 11.8 µM. In addition, the Kd with HLA-B*27:05 (setting [19]), with HLA-B*38:01 (setting [20]), with HLA-B*40:01 (setting [19]), in the experiment with HLA-B*46:01 (setting [19]), with HLA-B*48:01 (setting [19]) and in the experiment with HLA-B*51:01 was at least 20 µM each time. Further, the Kd with HLA-B*57:01 (setting [19]) is at least 20 µM; with HLA-B*58:01 (setting [19]), at least 20 µM; with HLA-B*15:01 [9] (source organism: Mycobacterium tuberculosis C), at least 20 µM; in the experiment with HLA-B*15:42, at least 5 µM; with HLA-B*45:06 it was at least 5 µM; in the experiment with HLA-B*83:01 it was 0.245 µM.
